Test results published in patent US20260263521A1 (AIMED BIO, published 2026).
“And” between values parts separate entries of the source, which are not always exact repeats. Identical values can stand only once. One block for each binder: values may come before it.

How the values were obtained:
[1] = target: T1, mouse CD200R1 protein (R&D systems, 2554-CD) (mouse, UniProt Q9ES57 26-238, limits assumed); test: ELISA on coated mouse CD200R1
T1 construct: Bought; construct not described
T1 sequence (looked up): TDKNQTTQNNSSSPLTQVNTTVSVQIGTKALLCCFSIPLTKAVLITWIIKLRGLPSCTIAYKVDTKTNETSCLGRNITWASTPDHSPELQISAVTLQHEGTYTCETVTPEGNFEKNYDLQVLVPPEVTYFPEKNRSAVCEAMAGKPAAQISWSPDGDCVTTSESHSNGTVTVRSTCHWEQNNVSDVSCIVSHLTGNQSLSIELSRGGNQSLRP

[2] = target: T2, human CD200R1 expressed on cells (Jurkat-CD200R1, U937-CD200R1, HH cells) (human, UniProt Q8TD46 25-348); test: cell-based or functional assay
T2 sequence (looked up): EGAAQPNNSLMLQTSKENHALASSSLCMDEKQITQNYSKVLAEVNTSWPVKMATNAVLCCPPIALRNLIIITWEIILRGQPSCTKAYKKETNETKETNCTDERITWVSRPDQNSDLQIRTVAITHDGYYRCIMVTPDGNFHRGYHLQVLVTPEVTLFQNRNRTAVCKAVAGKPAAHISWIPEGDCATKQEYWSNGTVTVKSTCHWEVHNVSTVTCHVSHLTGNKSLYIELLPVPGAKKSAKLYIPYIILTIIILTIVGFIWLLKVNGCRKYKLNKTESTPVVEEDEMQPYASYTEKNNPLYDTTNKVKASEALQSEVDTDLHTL

[3] = target: T2, human CD200R1 expressed on cells …; test: cell-based or functional assay; remark: listed apart in the source
[4] = target: T3, human CD200R1 with dual His-tags (human, UniProt Q8TD46 25-265); test: SPR (Biacore CM5), His-tagged antigen captured by anti-histidine antibody, antibody as analyte, 1:1 Langmuir fit
T3 construct: Captured on the SPR chip by an anti-histidine antibody; also called hCD200R1-his; not shown: dual His-tags
T3 sequence (looked up): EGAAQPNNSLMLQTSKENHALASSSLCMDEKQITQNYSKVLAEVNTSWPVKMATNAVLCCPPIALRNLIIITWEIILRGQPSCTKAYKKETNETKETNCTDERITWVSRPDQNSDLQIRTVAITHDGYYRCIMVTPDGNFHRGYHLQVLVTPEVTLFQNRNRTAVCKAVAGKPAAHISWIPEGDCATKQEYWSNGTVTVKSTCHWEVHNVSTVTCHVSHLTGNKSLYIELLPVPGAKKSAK
Method: (§1) For the experiment, 30 μg/mL of an anti-histidine antibody was conjugated to a CM5 biacore chip via an amine bond while allowing to flow at 10 μl/min (10,000 RU). Then, 0.25 μg/mL of human or cynomolgus CD200R1 with dual His-tags was captured onto the completed chip for 60 seconds, and the binding ability of each antibody was analyzed. All experiments were performed by association of antibodies for 120 seconds and dissociation of antibodies for 600 seconds. The resulting graphs were fitted using a 1:1 Langmuir binding kinetic model (FIG. 16), and the kinetics of each antibody were calculated.

[5] = target: T4, cynomolgus CD200R1 with dual His-tags (cynomolgus, UniProt G7NZT0 25-266); test: as above
T4 construct: Captured on the SPR chip by an anti-histidine antibody; also called CCD200R1-his; cCD200R1-his; not shown: dual His-tags
T4 sequence: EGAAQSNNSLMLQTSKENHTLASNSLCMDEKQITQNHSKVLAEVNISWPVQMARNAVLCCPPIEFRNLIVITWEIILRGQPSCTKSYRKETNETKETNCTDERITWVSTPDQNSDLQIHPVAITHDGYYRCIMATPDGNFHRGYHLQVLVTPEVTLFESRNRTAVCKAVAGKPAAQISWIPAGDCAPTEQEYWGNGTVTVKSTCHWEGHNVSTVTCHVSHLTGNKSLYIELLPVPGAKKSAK
Method: as §1

[6] = target: T2, human CD200R1 expressed on cells …; test: flow cytometry, U937-CD200R cells
Method: (§2) Two additional wells were treated with 10 μl of mouse IgG1K (BD, #555751) and 5 μl of commercial CD200R1 antibody (Biolegend, #329308) to determine CD200R1 expression on the cell line surface for cell quality control.
(§3) The antibodies were serially diluted 10-fold from a maximum concentration of 100 nM to 10 nM, 1 nM, […], and were added to the pre-seeded cells. After reaction for 1 hour at 4° C., the cells were treated with Alexa-647 goat anti-human IgG (H+L) cross-adsorbed secondary antibody (Invitrogen, #A21445) and incubated for an additional 30 minutes at 4° C. After washing twice with FACS buffer, flow cytometry was performed using a Novocyte Flow cytometer (Agilent). Using GraphPad Prism software, the EC₅₀ was determined using a nonlinear graph model of log (agonist) vs. response-variable slope, as shown in Table 32.

[7] = target: T2, human CD200R1 expressed on cells …; test: flow cytometry, HH cells
Method: as §2, §3

[8] = target: T2, human CD200R1 expressed on cells …; test: flow cytometry, Jurkat-CD200R cells
Method: as §2, §3

[9] = target: T5, human CD200R1 recombinant protein (construct not stated) (human, UniProt Q8TD46 27-266, limits assumed); test: ELISA on human CD200R1, normalized absorbance at 450 nm, 0.0192-300 nM; panel 'Human CD200R1'
T5 sequence (looked up): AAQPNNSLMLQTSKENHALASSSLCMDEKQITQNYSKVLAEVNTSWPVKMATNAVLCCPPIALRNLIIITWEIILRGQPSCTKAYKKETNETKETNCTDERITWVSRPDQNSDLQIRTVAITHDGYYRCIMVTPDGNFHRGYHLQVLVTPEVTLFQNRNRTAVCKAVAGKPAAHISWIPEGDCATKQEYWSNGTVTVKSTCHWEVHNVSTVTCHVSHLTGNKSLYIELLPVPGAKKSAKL

[10] = target: T5, human CD200R1 recombinant protein …; test: ELISA on human CD200R1, O.D 450 nm, 0.0192-300 nM; panel 'P001_CD200R1 human 1'
Method: (§4) 96-well plates were coated with human CD200R1 (R&D systems, 3414-CD) and mouse CD200R1 protein (R&D systems, 2554-CD) at a concentration of 2 μg/mL at 4° C. for 16 hours and then were blocked with 3% skim milk.
(§5) Color was developed with a TMB substrate solution (Thermo Scientific, 34029, 1-Step™ TMB-ELISA Ultra Substrate Solution). The color reaction was stopped with stop solution (Invitrogen, SS04, ELISA Stop Solution). The absorbance was measured at an optical density of 450 nm.
(§6) The secondary engineered antibodies were evaluated by ELISA in the same manner as in Examples described above.

[11] = target: T1, mouse CD200R1 protein (R&D systems, …); test: ELISA on mouse CD200R1, O.D 450 nm, 0.0192-300 nM; panel 'P001_CD200R1 mouse 1'
Method: as §4, §5, §6

[12] = target: T6, human CD200RLa (Sino Biological, 11620-H08H) recombinant protein (human, UniProt Q6Q8B3 24-239); test: ELISA, plate-bound human CD200RLa (2 ug/mL), antibody 0.0192-300 nM, O.D 450 nm; panel 'recombinant human CD200RLa'
T6 construct: Bought; construct not described
T6 sequence (looked up): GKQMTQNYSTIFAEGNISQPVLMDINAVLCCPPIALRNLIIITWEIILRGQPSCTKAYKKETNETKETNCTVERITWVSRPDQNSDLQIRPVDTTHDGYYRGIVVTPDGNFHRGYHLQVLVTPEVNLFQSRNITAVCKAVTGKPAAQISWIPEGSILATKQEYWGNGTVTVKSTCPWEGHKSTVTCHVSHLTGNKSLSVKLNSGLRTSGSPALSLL
Procedure, shortened: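 Plates coated overnight (16 h, 4° C) with human or cynomolgus CD200RLa recombinant protein, blocked with 3% skim milk; bound antibody detected by TMB colour development, reaction stopped before reading.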

Hybrid CD200R1 MH = target: T7, Hybrid CD200R1 MH (mouse;human, UniProt Q9ES57;Q8TD46); test: ELISA, plate-bound MH hybrid (1 ug/mL), antibody 0.0192-300 nM, O.D 450 nm; panel 'P001 MH domain-1)'
T7 construct: single domain; mouse D1 over human D2; also called MH hybrid domain; P001 MH domain
T7 sequence (hybrid extracellular part, looked up): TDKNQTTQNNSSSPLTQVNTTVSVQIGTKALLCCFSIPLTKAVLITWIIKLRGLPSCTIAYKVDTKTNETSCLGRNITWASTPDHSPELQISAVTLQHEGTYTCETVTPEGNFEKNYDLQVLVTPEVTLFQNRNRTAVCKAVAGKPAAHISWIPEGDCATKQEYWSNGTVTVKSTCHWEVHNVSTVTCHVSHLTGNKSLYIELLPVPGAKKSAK
Method: Recombinant proteins were produced from the extracellular Ig-like V-type domain and Ig-like C2-type domain of human CD200R1, each designed as human-mouse (HM hybrid domain) and mouse-human (MH hybrid domain) recombinant proteins. A 96-well plate was coated at a concentration of 1 μg/mL with each protein at 4° C. for 16 hours and blocked with 3% skim milk. […] After color development with TMB substrate solution (Thermo Scientific, 34029, 1-Step™ Ultra TMB-ELISA Substrate Solution), the color reaction was stopped with a stop solution (Invitrogen, SS04, ELISA Stop Solution), and the absorbance was measured at an O.D. of 450 nm.

B1: P001016 (IgG) (antibody, V domains shown)
VH: EVQLLESGGGLVQPGGSLRLSCAASGFTFSGYDMSWVRQAPGKGLEWVSGISYDGGSKYYADSVKGRFTISRDNSKNTLYLQMNSLRAEDTAVYYCAKDGYPLGAYYFDYWGQGTLVTVSS
VL: QSVLTQPPSASGTPGQRVTISCSVSSSNIGSNYVSWYRQLPGTAPKLLIYDDSKRPSGVPDRFSGSKSGTSASLAISGLRSEDEADYYCGTWDASLNGYVFGGGTKLTVL
binding result [1]: no binding (tested: 300 nM (highest concentration tested))

B2: P001009v1 (antibody, V domains shown)
VH: EVQLLESGGGLVQPGGSLRLSCAASGFTFSSYDMSWVRQAPGKGLEWVSWISHGGGSIYYADSVKGRFTISRDNSKNTLYLQMNSLRAEDTAVYYCARDAPAYSAPLFDYWGQGTLVTVSS
VL: QSVLTQPPSASGTPGQRVTISCSGSSSNIGNNAVNWYQQLPGTAPKLLIYYDKNRPSGVPDRFSGSKSGTSASLAISGLRSEDEADYYCAAWDDRLSGYVFGGGTKLTVL
notes: P001009 with LC S52K and S94R (Kabat); also called P019001v1; P0001009v1
EC50 (nM), degree of signal transduction by the Dok2 protein [2]: 1.28 nM
IC50 (nM) of IL-6 inhibition, LPS-treated U937-CD200R1 cells [3]: 0.1 nM
IC50 (nM) of TNF-α inhibition, LPS-treated U937-CD200R1 cells [3]: 0.18 nM
Kd [4]: 0.021 nM
koff [4]: 0.0001 s⁻¹
kon [4]: 4.77e+06 M⁻¹ s⁻¹
Kd [5]: 0.264 nM
koff [5]: 0.00138 s⁻¹
kon [5]: 5.23e+06 M⁻¹ s⁻¹
EC50 [6]: 0.3 nM
EC50 [7]: 0.16 nM
EC50 [8]: 0.17 nM
EC50 (read off the curve) [9]: ~3 nM

Continued, in another order:

binding result [11]: binds
binding result [12]: no binding (tested: 300 nM)
B3: P001018v26 (antibody, V domains shown)
VH: QVQLVQSGAEVKKPGASVKVSCKASGYTFTSYVMHWVRQAPGQGLEWMGYINPYNDDTNYNEKFKGRVTMTRDTSTSTVYMELSSLRSEDTAVYYCAREDYYGSRWGTWGQGTLVTVSS
VL: DIVLTQSPASLAVSPGQRATITCRASKSVSTSGYSYMHWYQQKPGQPPKLLIYLASNLESGVPARFSGSGSGTDFTLTINPVEANDTANYYCQHSHELLTFGQGTKVEIK
notes: H3-Y102T, L3-R92H
EC50 (read off the curve) [10]: ~2 nM and ~4 nM

binding result [12]: no binding (tested: 300 nM)
B4: P001001 (IgG) (antibody, V domains shown)
VH: EVQLLESGGGLVQPGGSLRLSCAASGFTFSSYDMHWVRQAPGKGLEWVSRISFTGSTSYNPSLKSRFTISRDNSKNTLYLQMNSLRAEDTAVYYCARDTWWEGYFDLWGQGTLVTVSS
VL: QSVLTQPPSASGTPGQRVTISCSGSSSNIGNNHVSWYQQLPGTAPKLLIYDDTDRLTSVPNRFSGSKSGTSASLAISGLRSEDEADYYCGTWDSSLSAYVFGGGTKLTVL
binding result [1]: no binding (tested: 300 nM (highest concentration tested))
binding result (Hybrid CD200R1 MH): no binding (tested: 300 nM)
